Test results taken from IntAct's records for PubMed 29892012.

B1: Abl interactor 2 (Homo sapiens), Q9NYB9 (parent)
chain: MAELQMLLEEEIPGGRRALFDSYTNLERVADYCENNYIQSADKQRALEETKAYTTQSLASVAYLINTLANNVLQMLDIQASQLRRMESSINHISQTVDIHKEKVARREIGILTTNKNTSRTHKIIAPANLERPVRYIRKPIDYTILDDIGHGVKWLLRFKVSTQNMKMGGLPRTTPPTQKPPSPPMSGKGTLGRHSPYRTLEPVRPPVVPNDYVPSPTRNMAPSQQSPVRTASVNQRNRTYSSSGSSGGSHPSSRSSSRENSGSGSVGVPIAVPTPSPPSVFPAPAGSAGTPPLPATSASAPAPLVPATVPSSTAPNAAAGGAPNLADGFTSPTPPVVSSTPPTGHPVQFYSMNRPASRHTPPTIGGSLPYRRPPSITSQTSLQNQMNGGPFYSQNPVSDTPPPPPPVEEPVFDESPPPPPPPEDYEEEEAAVVEYSDPYAEEDPPWAPRSYLEKVVAIYDYTKDKEDELSFQEGAIIYVIKKNDDGWYEGVMNGVTGLFPGNYVESIMHYSE

Variants of: B1
Conditions: with ift20_human IFT20, Q8IY31

| Variant | effect of a mutation on the interaction |
| --- | --- |
| E202K | with no effect |

Variants of: B1
Conditions: with wipf1_human WIPF1, O43516

| Variant | effect of a mutation on the interaction |
| --- | --- |
| E202K | with no effect |

Variants of: B1
Conditions: with k1h1_human KRT31, Q15323
Sequence of k1h1_human KRT31, Q15323 (Q15323 whole entry): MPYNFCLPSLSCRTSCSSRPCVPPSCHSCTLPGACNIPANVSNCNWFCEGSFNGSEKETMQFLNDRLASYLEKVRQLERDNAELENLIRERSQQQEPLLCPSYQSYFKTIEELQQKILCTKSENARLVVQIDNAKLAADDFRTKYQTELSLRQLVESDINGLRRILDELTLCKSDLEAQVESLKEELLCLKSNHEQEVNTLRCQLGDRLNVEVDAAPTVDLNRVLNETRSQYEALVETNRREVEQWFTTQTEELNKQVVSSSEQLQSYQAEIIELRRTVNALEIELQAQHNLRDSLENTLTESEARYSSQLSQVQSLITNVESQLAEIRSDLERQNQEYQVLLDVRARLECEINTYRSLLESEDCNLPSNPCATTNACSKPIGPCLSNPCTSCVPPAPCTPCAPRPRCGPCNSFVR

| Variant | effect of a mutation on the interaction |
| --- | --- |
| E202K | with no effect |

Variants of: B1
Conditions: with aapk2_human PRKAA2, P54646
Sequence of aapk2_human PRKAA2, P54646 (P54646 whole entry, looked up): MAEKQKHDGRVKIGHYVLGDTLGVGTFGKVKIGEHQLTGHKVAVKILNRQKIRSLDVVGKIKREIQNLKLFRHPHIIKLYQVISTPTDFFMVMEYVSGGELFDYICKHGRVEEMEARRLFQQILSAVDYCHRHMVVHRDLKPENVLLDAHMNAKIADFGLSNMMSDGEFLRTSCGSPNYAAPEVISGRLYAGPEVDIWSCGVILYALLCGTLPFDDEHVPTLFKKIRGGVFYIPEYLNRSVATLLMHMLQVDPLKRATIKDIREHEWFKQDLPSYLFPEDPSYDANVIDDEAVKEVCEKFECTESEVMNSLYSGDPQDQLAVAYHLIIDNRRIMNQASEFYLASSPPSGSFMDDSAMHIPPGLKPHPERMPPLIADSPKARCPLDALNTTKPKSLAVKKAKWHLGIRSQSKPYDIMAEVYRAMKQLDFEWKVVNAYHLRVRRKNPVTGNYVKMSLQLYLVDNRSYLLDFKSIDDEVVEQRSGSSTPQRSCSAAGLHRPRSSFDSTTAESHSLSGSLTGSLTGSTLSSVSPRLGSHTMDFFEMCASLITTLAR

| Variant | effect of a mutation on the interaction |
| --- | --- |
| E202K | with no effect |

Variants of: B1
Conditions: with skt_human KIAA1217, Q5T5P2
Sequence of skt_human KIAA1217, Q5T5P2 (Q5T5P2 whole entry): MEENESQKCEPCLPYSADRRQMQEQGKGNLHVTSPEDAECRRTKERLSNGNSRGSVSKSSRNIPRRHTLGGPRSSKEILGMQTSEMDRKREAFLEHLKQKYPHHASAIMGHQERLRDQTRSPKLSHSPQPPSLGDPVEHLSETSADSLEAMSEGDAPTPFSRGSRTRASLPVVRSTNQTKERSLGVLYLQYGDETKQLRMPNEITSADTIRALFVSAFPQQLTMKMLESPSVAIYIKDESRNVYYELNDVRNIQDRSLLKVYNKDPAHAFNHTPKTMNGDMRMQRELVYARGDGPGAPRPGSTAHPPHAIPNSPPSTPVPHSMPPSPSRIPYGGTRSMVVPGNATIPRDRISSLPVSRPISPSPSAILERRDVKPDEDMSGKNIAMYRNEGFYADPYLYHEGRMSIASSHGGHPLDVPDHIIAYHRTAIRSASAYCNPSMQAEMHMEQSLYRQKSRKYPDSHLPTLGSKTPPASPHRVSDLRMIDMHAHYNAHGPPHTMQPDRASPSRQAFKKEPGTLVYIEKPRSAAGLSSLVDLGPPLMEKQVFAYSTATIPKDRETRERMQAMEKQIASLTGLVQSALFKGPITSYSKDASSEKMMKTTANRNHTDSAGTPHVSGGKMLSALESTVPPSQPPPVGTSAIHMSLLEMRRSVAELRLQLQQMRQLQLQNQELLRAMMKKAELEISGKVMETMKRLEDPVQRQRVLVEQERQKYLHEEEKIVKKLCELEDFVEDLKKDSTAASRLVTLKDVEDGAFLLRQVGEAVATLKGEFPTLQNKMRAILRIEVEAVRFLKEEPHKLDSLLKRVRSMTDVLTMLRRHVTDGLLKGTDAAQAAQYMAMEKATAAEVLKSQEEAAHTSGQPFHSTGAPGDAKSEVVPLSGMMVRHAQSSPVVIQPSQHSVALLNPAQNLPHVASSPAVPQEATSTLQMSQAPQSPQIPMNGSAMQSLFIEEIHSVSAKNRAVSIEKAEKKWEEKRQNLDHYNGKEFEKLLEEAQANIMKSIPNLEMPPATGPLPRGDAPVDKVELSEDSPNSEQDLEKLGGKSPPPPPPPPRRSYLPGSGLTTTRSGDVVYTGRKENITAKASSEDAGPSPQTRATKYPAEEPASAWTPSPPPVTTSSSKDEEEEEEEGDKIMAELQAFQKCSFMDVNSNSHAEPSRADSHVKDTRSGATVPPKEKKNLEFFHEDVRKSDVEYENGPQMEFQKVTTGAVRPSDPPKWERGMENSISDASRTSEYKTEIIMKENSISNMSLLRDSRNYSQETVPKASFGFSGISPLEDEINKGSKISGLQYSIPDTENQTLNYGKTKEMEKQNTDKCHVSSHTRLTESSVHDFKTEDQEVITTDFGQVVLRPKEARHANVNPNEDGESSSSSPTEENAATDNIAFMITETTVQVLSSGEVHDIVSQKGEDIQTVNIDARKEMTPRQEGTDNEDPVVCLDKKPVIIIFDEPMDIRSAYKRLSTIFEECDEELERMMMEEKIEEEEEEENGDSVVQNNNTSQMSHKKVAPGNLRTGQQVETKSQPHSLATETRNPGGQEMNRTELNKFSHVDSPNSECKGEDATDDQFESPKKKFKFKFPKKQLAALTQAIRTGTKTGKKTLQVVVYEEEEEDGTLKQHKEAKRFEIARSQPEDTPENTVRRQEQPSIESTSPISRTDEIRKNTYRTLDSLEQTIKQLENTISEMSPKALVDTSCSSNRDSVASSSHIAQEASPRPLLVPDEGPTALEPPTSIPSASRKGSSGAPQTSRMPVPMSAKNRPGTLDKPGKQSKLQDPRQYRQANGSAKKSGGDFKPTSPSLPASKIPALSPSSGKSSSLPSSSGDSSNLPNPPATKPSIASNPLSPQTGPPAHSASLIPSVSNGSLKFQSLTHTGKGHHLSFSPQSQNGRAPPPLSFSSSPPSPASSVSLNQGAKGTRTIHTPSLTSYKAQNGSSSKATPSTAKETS

| Variant | effect of a mutation on the interaction |
| --- | --- |
| E202K | with no effect |

Variants of: B1
Conditions: with aapk1_human PRKAA1, Q13131

| Variant | effect of a mutation on the interaction |
| --- | --- |
| E202K | with no effect |

Variants of: B1
Conditions: with eif3h_human EIF3H

| Variant | effect of a mutation on the interaction |
| --- | --- |
| E202K | with no effect |

Variants of: B1
Conditions: with hnrpk_human HNRNPK

| Variant | effect of a mutation on the interaction |
| --- | --- |
| E202K | with no effect |

Variants of: B1
Conditions: with tri32_human TRIM32, Q13049
Sequence of tri32_human TRIM32, Q13049 (Q13049 whole entry): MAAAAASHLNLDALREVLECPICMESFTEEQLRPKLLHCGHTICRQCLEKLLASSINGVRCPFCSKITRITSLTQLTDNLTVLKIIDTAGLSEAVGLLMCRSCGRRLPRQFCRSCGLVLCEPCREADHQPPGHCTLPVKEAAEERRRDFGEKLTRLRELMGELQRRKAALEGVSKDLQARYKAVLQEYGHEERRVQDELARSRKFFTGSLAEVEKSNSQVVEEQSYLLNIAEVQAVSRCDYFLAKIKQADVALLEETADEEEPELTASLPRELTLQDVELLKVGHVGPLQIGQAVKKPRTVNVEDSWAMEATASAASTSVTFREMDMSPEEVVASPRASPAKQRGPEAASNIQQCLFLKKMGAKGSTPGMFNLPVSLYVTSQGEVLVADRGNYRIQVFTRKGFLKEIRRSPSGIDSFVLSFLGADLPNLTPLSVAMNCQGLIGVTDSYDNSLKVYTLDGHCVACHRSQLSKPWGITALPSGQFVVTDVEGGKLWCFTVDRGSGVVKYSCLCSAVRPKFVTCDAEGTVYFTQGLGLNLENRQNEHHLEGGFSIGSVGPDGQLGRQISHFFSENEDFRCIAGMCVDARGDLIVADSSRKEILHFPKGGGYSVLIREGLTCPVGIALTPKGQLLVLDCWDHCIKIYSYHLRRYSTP

| Variant | effect of a mutation on the interaction |
| --- | --- |
| E202K | with no effect |

Variants of: B1
Conditions: with vasp_human VASP

| Variant | effect of a mutation on the interaction |
| --- | --- |
| E202K | with no effect |

Variants of: B1
Conditions: with ppif_human PPIF

| Variant | effect of a mutation on the interaction |
| --- | --- |
| E202K | with no effect |

Variants of: B1
Conditions: with KRT15, P19012
Sequence of KRT15, P19012 (P19012 whole entry): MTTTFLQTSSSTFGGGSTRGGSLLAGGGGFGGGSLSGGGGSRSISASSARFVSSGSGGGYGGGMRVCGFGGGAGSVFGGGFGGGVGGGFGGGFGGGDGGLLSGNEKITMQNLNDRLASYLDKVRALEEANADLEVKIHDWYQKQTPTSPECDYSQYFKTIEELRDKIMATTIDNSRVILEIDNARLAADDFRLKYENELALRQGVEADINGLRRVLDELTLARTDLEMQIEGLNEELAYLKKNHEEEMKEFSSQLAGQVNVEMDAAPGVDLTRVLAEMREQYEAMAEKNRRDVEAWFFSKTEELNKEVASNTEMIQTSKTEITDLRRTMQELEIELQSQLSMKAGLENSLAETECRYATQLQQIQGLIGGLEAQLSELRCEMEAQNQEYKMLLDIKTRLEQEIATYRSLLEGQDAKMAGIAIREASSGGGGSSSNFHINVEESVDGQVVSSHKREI

| Variant | effect of a mutation on the interaction |
| --- | --- |
| E202K | with no effect |

Variants of: B1
Conditions: with nup62_human NUP62, P37198

| Variant | effect of a mutation on the interaction |
| --- | --- |
| E202K | with no effect |

Variants of: B1
Conditions: with KRT19, P08727
Sequence of KRT19, P08727 (P08727 whole entry): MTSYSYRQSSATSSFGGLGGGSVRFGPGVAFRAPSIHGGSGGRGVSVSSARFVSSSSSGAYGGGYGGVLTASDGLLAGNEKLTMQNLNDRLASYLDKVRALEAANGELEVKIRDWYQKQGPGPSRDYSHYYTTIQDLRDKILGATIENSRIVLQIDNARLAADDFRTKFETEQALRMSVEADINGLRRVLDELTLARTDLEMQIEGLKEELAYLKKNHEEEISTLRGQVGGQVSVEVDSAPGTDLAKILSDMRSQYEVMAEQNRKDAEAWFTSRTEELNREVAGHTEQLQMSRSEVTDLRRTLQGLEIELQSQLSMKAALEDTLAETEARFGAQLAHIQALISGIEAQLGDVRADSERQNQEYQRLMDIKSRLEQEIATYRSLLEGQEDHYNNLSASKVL

| Variant | effect of a mutation on the interaction |
| --- | --- |
| E202K | with no effect |

Variants of: B1
Conditions: with rhg32_human ARHGAP32, A7KAX9

| Variant | effect of a mutation on the interaction |
| --- | --- |
| E202K | with no effect |

Variants of: B1
Conditions: with nck2_human NCK2, O43639
Sequence of nck2_human NCK2, O43639 (O43639 whole entry): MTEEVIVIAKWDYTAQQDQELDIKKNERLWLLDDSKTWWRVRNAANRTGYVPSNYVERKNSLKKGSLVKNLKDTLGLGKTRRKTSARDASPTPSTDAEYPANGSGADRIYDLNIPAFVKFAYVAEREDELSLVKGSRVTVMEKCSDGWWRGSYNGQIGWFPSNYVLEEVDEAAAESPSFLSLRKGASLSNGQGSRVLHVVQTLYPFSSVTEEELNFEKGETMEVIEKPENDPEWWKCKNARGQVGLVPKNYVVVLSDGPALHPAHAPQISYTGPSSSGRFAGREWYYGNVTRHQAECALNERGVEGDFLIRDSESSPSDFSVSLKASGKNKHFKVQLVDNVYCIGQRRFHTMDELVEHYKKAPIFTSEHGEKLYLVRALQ

| Variant | effect of a mutation on the interaction |
| --- | --- |
| E202K | with no effect |

Variants of: B1
Conditions: with hgs_human HGS

| Variant | effect of a mutation on the interaction |
| --- | --- |
| E202K | with no effect |

Variants of: B1
Conditions: with pcm1_human PCM1, Q15154

| Variant | effect of a mutation on the interaction |
| --- | --- |
| E202K | with no effect |

Variants of: B1
Conditions: with stam2_human STAM2, O75886

| Variant | effect of a mutation on the interaction |
| --- | --- |
| E202K | with no effect |

Variants of: B1
Conditions: with vinc_human VCL

| Variant | effect of a mutation on the interaction |
| --- | --- |
| E202K | disrupting interaction strength |

Variants of: B1
Conditions: with crx_human CRX

| Variant | effect of a mutation on the interaction |
| --- | --- |
| E202K | with no effect |

Variants of: B1
Conditions: with mr1l1_human MRFAP1L1, Q96HT8
Sequence of mr1l1_human MRFAP1L1, Q96HT8 (Q96HT8 whole entry): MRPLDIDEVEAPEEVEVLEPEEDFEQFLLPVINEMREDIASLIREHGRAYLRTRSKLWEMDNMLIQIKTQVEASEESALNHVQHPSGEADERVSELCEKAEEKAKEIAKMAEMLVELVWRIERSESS

| Variant | effect of a mutation on the interaction |
| --- | --- |
| E202K | disrupting interaction strength |

Variants of: B1
Conditions: with sdcb1_human SDCBP

| Variant | effect of a mutation on the interaction |
| --- | --- |
| E202K | disrupting interaction strength |

Variants of: B1
Conditions: with efs_human EFS

| Variant | effect of a mutation on the interaction |
| --- | --- |
| E202K | with no effect |
